Legend:
xenograft models = assay: Several xenograft models (summary of Examples 1-3); assay type: in vivo
[1] = tested on: OMP-OV19 ovarian tumor cells; assay: OMP-OV19 ovarian tumor xenograft model, tumor volume; assay type: in vivo, NOD/SCID mice
Experimental: FIGS. 1A and 1B. Inhibition of ovarian tumor growth in vivo by a RSPO-LGR pathway inhibitor in combination with a chemotherapeutic agent. OMP-OV19 ovarian tumor cells were injected subcutaneously into NOD/SCID mice. FIG. 1A. Mice were treated with control antibody (-[…]-), paclitaxel (-▪-), a combination of paclitaxel plus anti-RSPO3 antibody 131R010 (also referred to as OMP-131R10) administered the same day (-▴-), or a combination of paclitaxel plus 131R010, wherein 131R010 was administered 2 days prior to paclitaxel (-▾-). Antibodies were dosed at 25 mg/kg and administered every other week. Paclitaxel was dosed at 20 mg/kg and administered every other week. Tumor volumes were measured on the indicated days post-treatment and shown as the mean±SEM. FIG. 1B. Tumor volumes of individual animals in the two combination treatment groups on Day 61.
OncoMed xenograft models described herein were established at OncoMed Pharmaceuticals from minimally passaged, patient-derived tumor specimens. The tumor specimens were examined by a pathologist and classified as a specific tumor type. […]
Single cell suspensions of xenograft OMP-OV19 ovarian tumor cells (1×10^5 cells) were injected subcutaneously into NOD/SCID mice. […] Tumor volumes were measured on the indicated days post-treatment and are shown as the mean±SEM in FIG. 1A.

[2] = tested on: OMP-LU77 lung tumor cells; assay: OMP-LU77 lung tumor xenograft model, tumor volume; assay type: in vivo, NOD/SCID mice
Experimental: FIG. 2. Inhibition of lung tumor growth in vivo by a RSPO-LGR pathway inhibitor in combination with a chemotherapeutic agent. OMP-LU77 lung tumor cells were injected subcutaneously into NOD/SCID mice. Mice were treated with control antibody (-▪-), paclitaxel (-▴-), a combination of paclitaxel and anti-RSPO3 antibody 131R010 (also referred to as OMP-131R10) administered the same day (-▾-), or a combination of paclitaxel plus anti-RSPO3 antibody 131R010, wherein 131R010 was administered 2 days prior to paclitaxel (-[…]-). Antibodies were dosed every three weeks at 25 mg/kg. Taxol was dosed every three weeks at 20 mg/kg. Tumor volumes were measured on the indicated days post-treatment.
(§1) OncoMed xenograft models described herein were established at OncoMed Pharmaceuticals from minimally passaged, patient-derived tumor specimens. The tumor specimens were examined by a pathologist and classified as a specific tumor type. OncoMed relies on these classifications unless further analyses are done on any specific tumor and a reclassification is deemed necessary.
Single cell suspensions of xenograft OMP-LU77 lung tumor cells (5×10^4 cells) were injected subcutaneously into NOD/SCID mice. Tumors were allowed to grow 34 days until they reached an average volume of approximately 125 mm^3. […] Tumor volumes were measured on the indicated days post-treatment.

OMP-C8 colon tumor cells = assay: OMP-C8 colorectal tumor xenograft model, tumor volume; assay type: in vivo, NOD/SCID mice; conditions: for tumor growth inhibition, staggered vs same-day dosing: OMP-131R010 25 mg/kg every other week, compared with dosing on the same day
Experimental: FIGS. 3A and 3B. Inhibition of colorectal tumor growth in vivo by a RSPO-LGR pathway inhibitor in combination with chemotherapeutic agents. OMP-C8 colorectal tumor cells were injected subcutaneously into NOD/SCID mice. FIG. 3A. Mice were treated with control antibody (-▪-), nab-paclitaxel (ABRAXANE) (-Δ-), a combination of nab-paclitaxel and anti-RSPO3 antibody 131R010 administered the same day (-[…]-), or a combination of nab-paclitaxel plus anti-RSPO3 antibody 131R010, wherein 131R010 was administered 2 days prior to nab-paclitaxel (-▾-). Antibodies were dosed every other week at 25 mg/kg. Nab-paclitaxel was dosed once a week at 30 mg/kg. Tumor volumes were measured on the indicated days post-treatment. FIG. 3B. Mice were treated with control antibody (-▪-), 5-FU and irinotecan (-◯-), a combination of 5-FU, irinotecan, and anti-RSPO3 antibody 131R010 administered the same day (-▴-), or a combination of 5-FU and irinotecan plus anti-RSPO3 antibody 131R010, wherein 131R010 was administered 2 days prior to 5-FU and irinotecan (-⋄-). Antibodies were dosed every other week at 25 mg/kg. 5-FU and irinotecan were dosed at 50 mg/kg and 5 mg/kg, respectively, once a week. Tumor volumes were measured on the indicated days post-treatment.
as §1
Single cell suspensions of xenograft OMP-C8 colon tumor cells (5×10^4 cells) were injected subcutaneously into NOD/SCID mice. OMP-C8 colon tumor cells comprise an inactivating mutation in the APC gene and express low levels of RSPO3 (data not shown). Tumors were allowed to grow 23 days until they reached an average volume of approximately 100 mm^3. Tumor-bearing mice were randomized into four groups (n=9 animals per group). […] Tumor volumes were measured on the indicated days post-treatment.

B1: OMP-131R010: anti-RSPO3 antibody; heavy chain variable region SEQ ID NO:38, light chain variable region SEQ ID NO:39; plasmids ATCC PTA-120420 and PTA-120421 (antibody, V domains shown)
VH: QVQLVQSGAEVKKPGASVKVSCKASGYTFTDYSIHWVRQAPGQGLEWIGYIYPSNGDSGYNQKFKNRVTMTRDTSTSTAYMELSRLRSEDTAVYYCATYFANNFDYWGQGTTLTVSS
VL: DIQMTQSPSSLSASVGDRVTITCKASQSVDYDGDSYMNWYQQKPGKAPKLLIYAASNLESGVPSRFSGSGSGTDFTLTISPVQAEDFATYYCQQSNEDPLTFGAGTKLELKR
notes: anti-RSPO3 antibody; plasmids ATCC PTA-120420 and PTA-120421
- inhibition of tumor growth, staggered vs co-administration (xenograft models; OMP-131R010 administered prior to a taxane, compared with co-administration): better at inhibiting tumor growth
- inhibition of tumor growth by the combination (xenograft models; combination of OMP-131R010 and a taxane): effective at inhibiting tumor growth
- tumor size over the course of the treatment (xenograft models; staggered administration of OMP-131R010 and taxane): decreased tumor size
- tumor growth inhibition, staggered vs same-day dosing ([1]; OMP-131R010 25 mg/kg every other week, given two days prior to paclitaxel 20 mg/kg every other week, compared with dosing on the same day): greater tumor growth inhibition than dosing on the same day
- tumor size over the course of the treatment ([1]; staggered administration: OMP-131R010 25 mg/kg two days prior to paclitaxel 20 mg/kg, every other week): decreased tumor size
- tumor growth inhibition, staggered vs same-day dosing ([2]; OMP-131R010 25 mg/kg given two days prior to paclitaxel 20 mg/kg, both once every three weeks, compared with dosing on the same day): greater tumor growth inhibition than dosing on the same day
- tumor size over the course of the treatment ([2]; staggered administration: OMP-131R010 25 mg/kg two days prior to paclitaxel 20 mg/kg, once every three weeks): decreased tumor size
- tumor growth inhibition, staggered vs same-day dosing (OMP-C8 colon tumor cells; given two days prior to fluorouracil 50 mg/kg and irinotecan 5 mg/kg weekly): did not result in greater tumor growth inhibition than dosing on the same day
- tumor growth inhibition, staggered vs same-day dosing (OMP-C8 colon tumor cells; given two days prior to nab-paclitaxel 30 mg/kg weekly): greater tumor growth inhibition than dosing on the same day
- efficacy in inhibiting tumor growth, vs combination with a non-mitotic-inhibitor chemotherapeutic agent (OMP-C8 colon tumor cells; OMP-131R010 and nab-paclitaxel administered in a sequential manner, compared with OMP-131R010 plus fluorouracil and irinotecan): greater efficacy in inhibiting tumor growth
